Experimental data from patent US20100234283A1.

The binders below were run against VEGFR-2 on HUVEC and 293/KDR cells (human), P35968 (assay: cell-based or functional assay).

Binder | inhibition of HUVEC migration (scratch wound assay, 50 ng/ml rhVEGF) [%]
ITMQCGIHQGQHPKIMICEMSF (modifications not checked) [VEGF-P3(NC)] | 50
ITMQIMRIKPHQGQHIGEMSF (modifications not checked) [VEGF 102-122] | 50
ITMQCGIHQGQHPKIMICEMSF (modifications not checked) [VEGF-P3(CYC)] | 50

Target: T1, KDR-Fc (R&D System), P35968
T1 chain: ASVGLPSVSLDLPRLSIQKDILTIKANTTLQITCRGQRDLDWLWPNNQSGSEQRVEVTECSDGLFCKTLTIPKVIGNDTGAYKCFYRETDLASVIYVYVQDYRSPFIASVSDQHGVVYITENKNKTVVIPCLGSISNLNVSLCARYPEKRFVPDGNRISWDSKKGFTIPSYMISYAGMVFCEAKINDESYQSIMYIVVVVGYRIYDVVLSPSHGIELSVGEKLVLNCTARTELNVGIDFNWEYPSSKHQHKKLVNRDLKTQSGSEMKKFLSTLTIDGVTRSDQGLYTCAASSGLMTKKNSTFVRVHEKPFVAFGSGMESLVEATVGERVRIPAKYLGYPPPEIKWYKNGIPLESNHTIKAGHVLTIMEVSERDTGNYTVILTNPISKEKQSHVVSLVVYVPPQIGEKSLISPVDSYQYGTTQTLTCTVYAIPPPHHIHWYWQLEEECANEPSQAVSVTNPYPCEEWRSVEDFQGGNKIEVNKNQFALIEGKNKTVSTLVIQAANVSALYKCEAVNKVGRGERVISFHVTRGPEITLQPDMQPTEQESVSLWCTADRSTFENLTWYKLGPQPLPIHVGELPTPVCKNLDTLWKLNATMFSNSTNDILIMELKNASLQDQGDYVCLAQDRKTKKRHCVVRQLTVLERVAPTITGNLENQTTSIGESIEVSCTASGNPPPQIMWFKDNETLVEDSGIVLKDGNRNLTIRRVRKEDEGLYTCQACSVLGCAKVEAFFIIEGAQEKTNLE
Assay: SPR (BIAcore 3000), peptide on CM5 chip, KDR-Fc injected, 1:1 Langmuir fit

Binder | Kd [nM]
ITMQCGIHQGQHPKIMICEMSF (modifications not checked) [VEGF-P3(NC)] | 49
ITMQIMRIKPHQGQHIGEMSF (modifications not checked) [VEGF 102-122] | 45
ITMQCGIHQGQHPKIMICEMSF (modifications not checked) [VEGF-P3(CYC)] | 11
